US20180044404A1

Molecular target: CD200 on FBL cells transduced with CD200 (CD200+ FBL)
Assay: cell-based or functional assay

accumulation of transduced T cells over multiple stimulations with irradiated CD200+ FBL: 3 fold
Substance: CD200R-9aas-CD28Cys (murine construct V) (from UniProt Q9ES57 26-229; P31041 142-150; P31041 151-218)
lysis of CD200+ FBL cells (CFSE-based cytotoxicity assay): > 40%
